Experimental data taken from article doi:10.1101/2024.05.22.595265 (bioRxiv, 2024).

T1: Aurora-A kinase domain 122-403 C290A,C393A (UniProt O14965 122-403, C290A | C393A)
T1 construct: Aurora-A Ser/Thr kinase, kinase domain, residues 122-403
T1 sequence (looked up): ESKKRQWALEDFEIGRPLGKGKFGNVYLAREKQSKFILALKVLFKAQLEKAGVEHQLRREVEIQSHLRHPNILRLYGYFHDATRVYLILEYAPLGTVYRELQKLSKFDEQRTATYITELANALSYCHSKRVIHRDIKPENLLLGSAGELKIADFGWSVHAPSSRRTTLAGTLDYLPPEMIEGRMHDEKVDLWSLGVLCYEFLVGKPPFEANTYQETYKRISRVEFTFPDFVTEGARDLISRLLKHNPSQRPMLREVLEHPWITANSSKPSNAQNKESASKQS

B1: N-myc transactivation domain, N-myc 1-137 (domain or fragment)
chain: GAMMPSCSTSTMPGMICKNPDLEFDSLQPCFYPDEDDFYFGGPDSTPPGEDIWKKFELLPTPPLSPSRGFAEHSSEPPSWVTEMLLENELWGSPAEEDAFGLGGLGGLTPNPVILQDCMWSGFSAREKLERAVSEKLQHG
notes: 15N-labelled for the NMR titration; also called N-myc TAD; N-myc_(1-137) TAD; not shown: His-NusA, N-terminal, cleaved
B2: N-myc 64-137 (domain or fragment)
chain: GAMGSRGFAEHSSEPPSWVTEMLLENELWGSPAEEDAFGLGGLGGLTPNPVILQDCMWSGFSAREKLERAVSEKLQHG
notes: N-myc residues 64-137 (AIH and MBII); 15N-labelled; not shown: His-NusA, N-terminal, cleaved

Biological target: T1, Aurora-A kinase domain 122-403 …
Assay: NMR titration; 1H-15N HSQC of 15N-labelled N-myc constructs (150-315 uM); aliquots of Aurora-A (305-400 uM) added up to [N-myc]:[Aurora-A] 1:1.4; 20 mM (K/H)3PO4 pH 6.5, 150 mM NaCl, 2 mM beta-mercaptoethanol, 1% glycerol, 5 mM MgCl2, 5 mM ADP
Conditions: both partners purified

Row | Binder | binding result
1 | B1 | binds
2 | B2 | binds
